Like-named read-outs stand apart in the source and are kept apart here.
B1: S451-1140 (antibody, V domains shown)
VH: EVQLVESGGGLVPPGGSLRLSCAASGFIFSNYAMTWVRQAPGKGLEWVSAISGGGGSTDYADSVKGRFTISRDNSKNTLYLQMNSLRAEDTAVYYCAKDLFGSGWSLFDNWGQGTLVTVS
VL: not shown
B2: LY-CoV555 (Eli Lilly) (antibody, V domains shown)
VH: QVQLVQSGAEVKKPGSSVKVSCKASGGTFSNYAISWVRQAPGQGLEWMGRIIPILGIANYAQKFQGRVTITADKSTSTAYMELSSLRSEDTAVYYCARGYYEARHYYYYYAMDVWGQGTAVTVSS
VL: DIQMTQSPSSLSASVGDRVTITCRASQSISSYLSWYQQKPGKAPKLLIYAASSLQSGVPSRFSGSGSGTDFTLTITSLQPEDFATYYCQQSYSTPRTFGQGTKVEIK
B3: S626-161 (antibody, V domains shown)
VH: QLQLQESGPGLVKPSEALSLTCTVSGGSISTSNYYWGWIRQPPGKGLEWIGSIYYRGGTHYNPSLKTRVTISVDTSKNQFSLKLSSVTAADTAVYYCARHTYFYDIVGAAVWEPFDIWGQGTMVTVSS
VL: not shown
B4: REGN10933 (Regeneron) (antibody, V domains shown)
VH: QVQLVESGGGLVKPGGSLRLSCAASGFTFSDYYMSWIRQAPGKGLEWVSYITYSGSTIYYADSVKGRFTISRDNAKSSLYLQMNSLRAEDTAVYYCARDRGTTMVPFDYWGQGTLVTVSS
VL: DIQMTQSPSSLSASVGDRVTITCQASQDITNYLNWYQQKPGKAPKLLIYAASNLETGVPSRFSGSGSGTDFTFTISGLQPEDIATYYCQQYDNLPLTFGGGTKVEIK
notes: source: HEK293T, transiently cotransfected, purified (protein A-agarose beads); copies: 2 + 2
B5: S728-1157 IgG (antibody, V domains shown)
VH: EVQLVESGGGLVQPGGSLRLSCAASGLLVSRNYMNWVRQAPGKGLEWVSIIYSGGSTFYADSVEGRFTISRDESKNTLYLQMNSLRTDDTAVYYCARDLSDYGGIDCWGQGTLVTVSS
VL: YELTQPLSVSMALGQTARISCGGDNVGSQNVHWYQQRPGQAPVLVIYRDSNRPSGIPERFSGSKSGNTATLTISRAQAGDEADYYCQVWDSSTVAFGGGTKLTVL
notes: copies: 2 + 2

Key:
[1] = biological target: recombinant FL spike WT-2P (SARS-CoV-2 WT (Wuhan-Hu-1), stabilised, biotin (EZ-Link Sulfo-NHS-Biotin) in the BLI experiments)
[2] = biological target: recombinant FL spike WT-6P (SARS-CoV-2 WT (Wuhan-Hu-1), UniProt P0DTC2, stabilised, biotin (EZ-Link Sulfo-NHS-Biotin) in the BLI experiments)
SARS-CoV-2 WT RBD [3] = biological target: T1, SARS-CoV-2 WT RBD (SARS-CoV-2 WT (Wuhan-Hu-1), UniProt P0DTC2)
spike BA.1-6P = spike BA.1-6P (SARS-CoV-2, Omicron BA.1, strain)
SARS-CoV-2 WT RBD [4] = biological target: T1, SARS-CoV-2 WT RBD; experiment: ELISA; details: both partners purified

Binder	binding result [1]	binding result [2]	binding result (SARS-CoV-2 WT RBD [3])	binding result (spike BA.1-6P)	binding result (SARS-CoV-2 WT RBD [4])
B1	binds	binds	binds	binds	–
B2	–	–	–	–	binds
B3	binds	binds	binds	binds	–
B4	–	–	–	–	binds
B5	–	–	–	–	binds

Source: PMC10104900 (The Journal of Clinical Investigation, 2023)
